Measured values from paper PMC4598089, “An Sp1 Modulated Regulatory Region Unique to Higher Primates Regulates Human Androgen Receptor Promoter Activity in Prostate Cancer Cells”.

B1: Sp1-3 (dsDNA)
DNA 1: TTCTCCCCACCCGCCCCCCCGCCCCCGTCG
DNA 2: CGACGGGGGCGGGGGGGCGGGTGGGGAGAA
B2: ARS (dsDNA)
DNA 1: TCTCCACCCCGCCTCCCCCCACCCTGCCTT
DNA 2: AAGGCAGGGTGGGGGGAGGCGGGGTGGAGA
B3: Sp1-1 (dsDNA)
DNA 1: CGGCCCGGTGGGGGCGGGACCCGACTCGCA
DNA 2: TGCGAGTCGGGTCCCGCCCCCACCGGGCCG

Target: Sp1 (purified recombinant) (Homo sapiens, UniProt P08047 1-785)
Sequence (P08047 whole entry): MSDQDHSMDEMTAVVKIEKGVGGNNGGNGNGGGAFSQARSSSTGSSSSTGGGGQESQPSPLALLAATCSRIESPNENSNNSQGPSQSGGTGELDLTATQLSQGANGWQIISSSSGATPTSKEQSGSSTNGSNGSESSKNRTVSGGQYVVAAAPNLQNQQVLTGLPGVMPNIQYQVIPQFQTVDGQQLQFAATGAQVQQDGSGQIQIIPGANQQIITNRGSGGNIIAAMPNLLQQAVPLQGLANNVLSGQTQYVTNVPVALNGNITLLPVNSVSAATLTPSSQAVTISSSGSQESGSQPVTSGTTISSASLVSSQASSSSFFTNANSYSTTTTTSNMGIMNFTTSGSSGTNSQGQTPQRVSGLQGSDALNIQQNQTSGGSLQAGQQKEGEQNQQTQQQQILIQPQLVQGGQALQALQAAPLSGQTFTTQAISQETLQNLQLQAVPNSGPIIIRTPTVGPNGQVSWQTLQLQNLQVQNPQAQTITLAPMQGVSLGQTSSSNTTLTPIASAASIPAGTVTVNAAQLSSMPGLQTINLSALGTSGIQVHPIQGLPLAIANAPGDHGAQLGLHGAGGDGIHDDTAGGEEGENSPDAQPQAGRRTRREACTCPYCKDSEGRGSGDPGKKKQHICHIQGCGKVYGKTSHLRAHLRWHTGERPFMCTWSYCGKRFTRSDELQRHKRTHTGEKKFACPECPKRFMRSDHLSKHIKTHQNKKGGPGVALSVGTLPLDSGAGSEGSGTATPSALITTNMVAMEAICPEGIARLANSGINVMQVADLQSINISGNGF
Assay: EMSA; EMSA: 10 ug nuclear extract or 120 nM Sp1, 20 fmol biotin probe; binding buffer per earlier paper (not given); 6% native PAGE, 0.5x TBE pH 8.3, cooled gel. pur-alpha bands not listed: antibody had no effect, protein not identified in extract.
Settings: label: 3' biotin, blunt

Q: Does B1 bind?
A: binds

Q: Does B2 bind?
A: binds

Q: Does B3 bind?
A: binds
